# Experimental data reported in patent US20180340159.
# T1: propeptide of Rhizomucor miehei lipase (RmL)
# T1 chain: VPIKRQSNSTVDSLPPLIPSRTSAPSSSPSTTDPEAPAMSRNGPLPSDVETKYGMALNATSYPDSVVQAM
# Target: T1, propeptide of Rhizomucor miehei lipase …
protein,measurement,value
Rhizomucor miehei lipase (RmL) wild type mature protein (protein) SIDGGIRAATSQEINELTYYTTLSANSYCRTVIPGATWDCIHCDATEDLKIIKTWSTLIYDTNAMVARGDSEKTIYIVFRGSSSIRNWIADLTFVPVSYPPVSGTKVHKGFLDSYGEVQNELVATVLDQFKQYPSYKVAVTGHSLGGATALLCALDLYQREEGLSSSNLFLYTQGQPRVGDPAFANYVVSTGIPYRRTVNERDIVPHLPPAAFGFLHAGEEYWITDNSPETVQVCTSDLETSDCSNSIVPFTSVLDHLSYFGINTGLCT,"lipase hydrolytic activity (4-MU oleate), average slope; incubated with 5 µM TCEP",22 RFU/sec
same,"lipase hydrolytic activity (4-MU oleate), average slope; incubated with 5 uM TCEP + Model B",66 RFU/sec
same,"lipase hydrolytic activity (4-MU oleate), average slope; incubated with 1.35% Savinase + Model B",143 RFU/sec
same,"lipase hydrolytic activity (4-MU oleate), average slope; incubated with 2% NaSO2",28 RFU/sec
same,"lipase hydrolytic activity (4-MU oleate), average slope; incubated with 2% NaSO2 + Model B",66 RFU/sec
